Key:
[1] = molecular target: T1, CCDC112 recombinant protein (coiled-coil domain-containing protein 112) (human) (UniProt Q8NEF3); test: ELISA, coated CCDC112, LILRB2-hFc, 0 ug/mL CCDC112 antibody; number over the bar
T1 sequence: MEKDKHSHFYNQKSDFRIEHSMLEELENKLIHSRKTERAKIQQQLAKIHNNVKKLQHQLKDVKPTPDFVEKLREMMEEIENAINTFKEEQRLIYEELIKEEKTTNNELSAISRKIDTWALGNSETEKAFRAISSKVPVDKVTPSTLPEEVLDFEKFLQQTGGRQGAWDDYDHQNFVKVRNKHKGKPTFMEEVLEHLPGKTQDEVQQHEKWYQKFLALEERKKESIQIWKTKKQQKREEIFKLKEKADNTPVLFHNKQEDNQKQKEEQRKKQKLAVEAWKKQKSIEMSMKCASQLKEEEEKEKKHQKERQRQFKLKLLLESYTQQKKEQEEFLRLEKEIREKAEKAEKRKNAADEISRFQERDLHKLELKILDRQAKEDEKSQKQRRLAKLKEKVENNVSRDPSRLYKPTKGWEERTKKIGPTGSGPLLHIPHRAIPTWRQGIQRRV

[2] = molecular target: CCDC112 on HCT116 tumor cells (including HCT116 cells stably overexpressing CCDC112) (human) (UniProt Q8NEF3); test: flow cytometry on HCT116 cells overexpressing CCDC112; ambiguous fit of a flat control curve (see non_binding); table gives no unit, unit from the x axis

LILRB2-hFc (LILRB2 extracellular region protein fragment labeled with hFc), sequence (Q8N423 22-460): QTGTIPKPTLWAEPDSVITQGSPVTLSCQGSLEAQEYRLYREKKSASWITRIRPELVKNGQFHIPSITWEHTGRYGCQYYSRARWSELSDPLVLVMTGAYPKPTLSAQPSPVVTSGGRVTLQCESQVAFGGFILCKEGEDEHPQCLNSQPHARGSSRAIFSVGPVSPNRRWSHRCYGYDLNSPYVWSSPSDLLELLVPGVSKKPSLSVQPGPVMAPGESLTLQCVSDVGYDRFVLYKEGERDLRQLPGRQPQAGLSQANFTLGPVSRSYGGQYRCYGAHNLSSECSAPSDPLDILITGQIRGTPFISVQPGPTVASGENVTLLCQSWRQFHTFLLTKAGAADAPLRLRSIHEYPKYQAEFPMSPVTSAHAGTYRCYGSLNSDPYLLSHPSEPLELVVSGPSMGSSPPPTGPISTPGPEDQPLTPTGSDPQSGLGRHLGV

Substance | OD450 [1] | EC50 [2]
LILRB2-hFc (LILRB2 extracellular region protein fragment labeled with hFc) (from UniProt Q8N423 22-460) (Fc fusion) | 1.58 OD450 | 
mIgG1 (antibody) |  | 44.9 nM

Reference: patent US20240101663A1
